From patent US20140356358A1 (Amgen, published 2014)
Positions count from the first letter of the chain named. Names and notes keep the numbering of the source. Values belong to the binder of their own block, whether it stands above or below them.

How the values were obtained:
[1] = biological target: T1, human neonatal Fc receptor (hFcRn) (human, UniProt P55899 24-290; P61769 21-119); assay: phage ELISA pH 7.4
T1 construct: Biotinylated in the ELISA, Octet and yeast assays; also called human FcRn; huFcRn
Description: (§1) Approximately 100 μL of biotinylated human FcRn at 2 μg/mL was added to the wells of MAXISORP™ plates coated with 10 μg/mL streptavidin. After washing with PBS plus 0.05% Tween 20 (PBST) five times, phage from the overnight cultures in MES buffer at pH 6.0 or pH 7.4 were added to the plates and incubated at room temperature for 1 hr. A horseradish peroxidase (HRP)-conjugated anti-M13 antibody was used to detect the binding phage, and the plates were scored by a microtiter plate reader using a wavelength in the visible range.
(§2) Binding was assessed by a quantitative enzyme-linked immunoadsorbent assay (ELISA). The ELISA scores reflect binding affinity, with higher scores meaning higher affinity. Typically, scores higher than about 3˜5 indicate binding above background. For library L5, the insertions are between the N169 and G170 according to the numbering in FIG. 2. For libraries 6A and 6B, the insertions are between L143 and T144 according to the numbering in FIG. 2.

[2] = biological target: T1, human neonatal Fc receptor (hFcRn); assay: phage ELISA pH 6
Description: as §1, §2
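Further: higher score means stronger binding and above about 3 to 5 exceeds background.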

B1: L6A isolate with insertion SEQ ID NO: 400 (other)
chain: EPKSCDKTHTCPPCPAPELLGGPSVFLFPPKPKDTLMISRTPEVTCVVVDVSHEDPEVKFNWYVDGVEVHNAKTKPREEQYNSTYRVVSVLTVLHQDWLNGKEYKCKVSNKALPAPIEKTISKAKGQPREPQVYTLPPSRDELGGCRAGYGDASCGGTKNQVSLTCLVKGFYPSDIAVEWESNGQPENNYKTTPPVLDSDGSFFLYSKLTVDKSRWQQGNVFSCSVMHEALHNHYTQKSLSLSPGK
ELISA score [1]: 0.7 | ELISA score [2]: 79.5

B2: L6A isolate with insertion SEQ ID NO: 466 (other)
chain: B1 chain with R147D, A148R, G149F, Y150Q, G151N, D152V, A153N, S154V
ELISA score [1]: 0.2 | ELISA score [2]: 44

B3: L6A isolate with insertion SEQ ID NO: 474 (other)
chain: B1 chain with R147A, A148K, G149D, Y150Q, G151H, D152T, A153G
ELISA score [1]: 0.2 | ELISA score [2]: 41.2

B4: L6A isolate with insertion SEQ ID NO: 467 (other)
chain: B1 chain with R147E, A148R, G149H, Y150F, G151P, D152A, A153L, S154F
ELISA score [1]: 0.6 | ELISA score [2]: 43.8

B6: L6A isolate with insertion SEQ ID NO: 465 (other)
chain: B1 chain with R147F, A148T, G149N, G151A, D152S, A153E, S154K
ELISA score [1]: 0.3 | ELISA score [2]: 45.2

B7: L5 isolate with insertion SEQ ID NO: 439 (other)
chain: EPKSCDKTHTCPPCPAPELLGGPSVFLFPPKPKDTLMISRTPEVTCVVVDVSHEDPEVKFNWYVDGVEVHNAKTKPREEQYNSTYRVVSVLTVLHQDWLNGKEYKCKVSNKALPAPIEKTISKAKGQPREPQVYTLPPSRDELTKNQVSLTCLVKGFYPSDIAVEWESNGGCHHKQDQCGGGQPENNYKTTPPVLDSDGSFFLYSKLTVDKSRWQQGNVFSCSVMHEALHNHYTQKSLSLSPGK
ELISA score [1]: 0.6 | ELISA score [2]: 54.9

B9: L5 isolate with insertion SEQ ID NO: 493 (other)
chain: B7 chain with H173L, H174L, K175P, Q176N, D177M, Q178F
ELISA score [1]: 1 | ELISA score [2]: 22

B15: L5 isolate with insertion SEQ ID NO: 451 (other)
chain: B7 chain with H173N, H174L, K175G, Q176H, D177M, Q178P
ELISA score [1]: 0.4 | ELISA score [2]: 51.1

B16: L5 isolate with insertion SEQ ID NO: 480 (other)
chain: B7 chain with H173A, H174G, K175P, Q176Y, D177W, Q178A
ELISA score [1]: 0.7 | ELISA score [2]: 33.7

B17: L5 isolate with insertion SEQ ID NO: 479 (other)
chain: B7 chain with H173M, H174F, K175S, Q176H, D177P, Q178H
ELISA score [1]: 0.7 | ELISA score [2]: 35.8

B21: L5 isolate with insertion SEQ ID NO: 485 (other)
chain: B7 chain with H173M, H174P, K175P, D177W, Q178M
ELISA score [1]: 2.1 | ELISA score [2]: 27.5

B22: L5 isolate with insertion SEQ ID NO: 446 (other)
chain: B7 chain with H173M, K175N, Q176E, D177E, Q178F
ELISA score [1]: 0.4 | ELISA score [2]: 53.2

B23: L5 isolate with insertion SEQ ID NO: 496 (other)
chain: B7 chain with H173G, H174G, K175P, Q176Y, D177V, Q178F
ELISA score [1]: 1.4 | ELISA score [2]: 21.3

B24: L5 isolate with insertion SEQ ID NO: 491 (other)
chain: B7 chain with C172S, H173Q, H174R, K175A, Q176P, D177A, Q178S
ELISA score [1]: 1.2 | ELISA score [2]: 24.9

B25: L5 isolate with insertion SEQ ID NO: 461 (other)
chain: B7 chain with H173K, H174W, K175S, Q176M, D177T, Q178K
ELISA score [1]: 0.9 | ELISA score [2]: 47.2

B26: L5 isolate with insertion SEQ ID NO: 484 (other)
chain: B7 chain with H173Y, H174A, K175S, Q176P, D177H, Q178E
ELISA score [1]: 1 | ELISA score [2]: 27.7

B29: L5 isolate with insertion SEQ ID NO: 450 (other)
chain: B7 chain with H173Q, H174T, K175S, Q176M, D177K, Q178N
ELISA score [1]: 0.2 | ELISA score [2]: 51.3

B30: L5 isolate with insertion SEQ ID NO: 443 (other)
chain: B7 chain with H173S, H174R, K175V, Q176F, D177K, Q178Y
ELISA score [1]: 0.7 | ELISA score [2]: 54.2

B31: L5 isolate with insertion SEQ ID NO: 453 (other)
chain: B7 chain with H173V, K175N, Q176D, D177K, Q178L
ELISA score [1]: 0.4 | ELISA score [2]: 50.3

B33: L5 isolate with insertion SEQ ID NO: 449 (other)
chain: B7 chain with H173L, H174Q, K175N, Q176L, D177Y, Q178V
ELISA score [1]: 0.4 | ELISA score [2]: 51.6

B34: L5 isolate with insertion SEQ ID NO: 489 (other)
chain: B7 chain with H173Q, H174P, K175Q, Q176A, D177S, Q178W
ELISA score [1]: 0.7 | ELISA score [2]: 25.2

B37: L5 isolate with insertion SEQ ID NO: 441 (other)
chain: B7 chain with H173E, H174A, K175T, Q176M, D177T, Q178W
ELISA score [1]: 0.6 | ELISA score [2]: 54.7

B39: L5 isolate with insertion SEQ ID NO: 459 (other)
chain: B7 chain with H173P, H174G, K175H, Q176E, D177F, Q178R
ELISA score [1]: 1.8 | ELISA score [2]: 48.2

B40: L5 isolate with insertion SEQ ID NO: 462 (other)
chain: B7 chain with H173D, H174W, K175H, Q176R, D177M, Q178K
ELISA score [1]: 1.4 | ELISA score [2]: 47

B41: variant Fc-fragment Fc-5-66 (other)
chain: B7 chain with H173E, H174R, K175F, Q176H, D177H, Q178A
notes: soluble elsewhere
ELISA score [1]: 0.5 | ELISA score [2]: 51.2

B44: L5 isolate with insertion SEQ ID NO: 447 (other)
chain: B7 chain with H173M, H174F, K175E, Q176T, D177K, Q178W
ELISA score [1]: 1.2 | ELISA score [2]: 52.4

B46: L5 isolate with insertion SEQ ID NO: 492 (other)
chain: B7 chain with H173M, H174M, K175R, Q176E, D177Q, Q178G
ELISA score [1]: 1.5 | ELISA score [2]: 23.9

Other lines, results leading:

ELISA score [1]: 0.2 | ELISA score [2]: 48.5
B5: L6A isolate with insertion SEQ ID NO: 458 (other)
chain: B1 chain with R147N, A148P, G149V, Y150S, G151T, D152G, S154Y

ELISA score [1]: 0.7 | ELISA score [2]: 26.3
B8: L5 isolate with insertion SEQ ID NO: 487 (other)
chain: B7 chain with H173G, H174I, K175F, Q176E, D177S, Q178W

ELISA score [1]: 1.6 | ELISA score [2]: 42.4
B10: L5 isolate with insertion SEQ ID NO: 470 (other)
chain: B7 chain with H173E, H174A, K175S, Q176G, D177Q, Q178I

ELISA score [1]: 1 | ELISA score [2]: 36.1
B11: L5 isolate with insertion SEQ ID NO: 478 (other)
chain: B7 chain with H173D, H174L, K175P, Q176N, D177E, Q178M

ELISA score [1]: 0.5 | ELISA score [2]: 28.4
B12: L5 isolate with insertion SEQ ID NO: 483 (other)
chain: B7 chain with H173P, H174Q, K175H, Q176G, D177E, Q178M

ELISA score [1]: 0.4 | ELISA score [2]: 53.2
B13: L5 isolate with insertion SEQ ID NO: 445 (other)
chain: B7 chain with H173P, H174L, K175V, Q176R, D177A, Q178D

ELISA score [1]: 1.4 | ELISA score [2]: 26.9
B14: L5 isolate with insertion SEQ ID NO: 486 (other)
chain: B7 chain with H173D, H174T, K175I, Q176G, D177W, Q178F

ELISA score [1]: 0.6 | ELISA score [2]: 49.8
B18: L5 isolate with insertion SEQ ID NO: 456 (other)
chain: B7 chain with H173Y, H174P, K175Q, Q176K, D177E, Q178I

ELISA score [1]: 1.6 | ELISA score [2]: 41.1
B19: L5 isolate with insertion SEQ ID NO: 475 (other)
chain: B7 chain with H173L, H174G, K175L, Q176R, D177Q, Q178E

ELISA score [1]: 0.3 | ELISA score [2]: 53.2
B20: L5 isolate with insertion SEQ ID NO: 444 (other)
chain: B7 chain with H174A, K175P, D177W, Q178E

ELISA score [1]: 0.9 | ELISA score [2]: 26.1
B27: L5 isolate with insertion SEQ ID NO: 488 (other)
chain: B7 chain with H173G, H174P, K175Y, Q176K, D177T, Q178E

ELISA score [1]: 0.8 | ELISA score [2]: 31.1
B28: L5 isolate with insertion SEQ ID NO: 481 (other)
chain: B7 chain with H173E, H174Q, K175Q, Q176F, D177V, Q178T

ELISA score [1]: 0.9 | ELISA score [2]: 46.2
B32: L5 isolate with insertion SEQ ID NO: 464 (other)
chain: B7 chain with H173M, H174M, K175W, Q176K, D177V, Q178N

ELISA score [1]: 0.3 | ELISA score [2]: 21.7
B35: L5 isolate with insertion SEQ ID NO: 494 (other)
chain: B7 chain with H173C, H174P, K175V, Q176Y, D177Q, Q178H

ELISA score [1]: 1 | ELISA score [2]: 21.5
B36: L5 isolate with insertion SEQ ID NO: 495 (other)
chain: B7 chain with H173L, H174M, K175S, Q178L

ELISA score [1]: 1 | ELISA score [2]: 50.5
B38: L5 isolate with insertion SEQ ID NO: 452 (other)
chain: B7 chain with H173W, H174M, K175W, Q176A, D177E, Q178E

ELISA score [1]: 1.6 | ELISA score [2]: 38.7
B42: L5 isolate with insertion SEQ ID NO: 477 (other)
chain: B7 chain with H173Q, H174Q, K175I, Q176K, D177E, Q178W

ELISA score [1]: 3.6 | ELISA score [2]: 46.8
B43: L5 isolate with insertion SEQ ID NO: 463 (other)
chain: B7 chain with H173M, K175S, Q176P, D177H, Q178A

ELISA score [1]: 1.2 | ELISA score [2]: 29.5
B45: L5 isolate with insertion SEQ ID NO: 482 (other)
chain: B7 chain with H173M, H174G, K175W, Q176W, D177H, Q178L
